Measurements reported in patent publication US20250019439A1 (Adimab, published 2025).

What was measured:
Assay in all cases: BLI; tip anti-CD3 bsIgG, solution ADI-34145 IgG
ADI-22523 anti-CD3 bsIgG = molecular target: T1, ADI-22523 anti-CD3 bsIgG (In the assayed molecule VL and VH are joined as one scFv (printed 'Vx-VH' orientation) by an undisclosed linker and fused to an Fc, paired with an anti-HER2 half-IgG. They are given here as two …)
T1 construct: anti-HER2 IgG with one Fab arm replaced by the anti-CD3 scFv (printed 'Vx-VH', read as VL-VH); S354C and Y349C mutations; not shown: scFv linker between VL and VH; anti-HER2 heavy and light chains; hinge and Fc with S354C/Y349C
T1 sequence (VH, as listed by the source limits assumed, chain 1 of 2): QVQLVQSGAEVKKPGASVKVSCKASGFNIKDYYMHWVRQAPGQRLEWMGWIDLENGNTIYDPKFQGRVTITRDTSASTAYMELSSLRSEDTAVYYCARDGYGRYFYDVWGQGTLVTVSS
T1 sequence (VL, as listed by the source limits assumed, chain 2 of 2): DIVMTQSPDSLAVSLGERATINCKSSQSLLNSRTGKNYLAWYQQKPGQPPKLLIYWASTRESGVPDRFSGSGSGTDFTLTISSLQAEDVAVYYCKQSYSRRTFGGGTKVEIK
Method: (§1) ForteBio affinity measurements were performed generally as previously described (Estep et al., MAbs. 2013 5(2):270-8). Briefly, ForteBio affinity measurements were performed by loading antibody IgG or Fabs on-line onto AHC sensors. Sensors were equilibrated off-line in assay buffer for 30 minutes and then monitored on-line for 60 seconds for baseline establishment. For avid binding measurement, sensors with loaded antibodies were exposed to IgG or Fab solutions for 3 minutes, afterwards they were transferred to assay buffer for 3 minutes for off-rate measurement. Kinetics data were fit using a 1:1 binding model in the data analysis software provided by ForteBio to obtain equilibrium dissociation constant (KD=koff/kₒₙ) values. In each column, tip-immobilized antibodies are listed first and solution antibodies second.
(§2) Additional analysis was conducted using bispecific antibody formats incorporating anti-CD3 antibody variable domains. Bispecific antibodies were prepared using standard IgG formats (bsIgG) with replacement of Fab arms with anti-CD3 scFvs in Vx-VH orientation and with S354C and Y349C mutations for disulfide stabilization. Antibodies used for Fab arm replacement were anti-HER2 IgG antibodies, with one Fab arm from each replaced by a scFv corresponding to a different anti-CD3 antibody. […] In each column, tip-immobilized antibodies are listed first and solution antibodies second. Anti-CD3 antibodies associated with incorporated scFvs are listed by antibody number.

ADI-26906 anti-CD3 bsIgG = molecular target: T2, ADI-26906 anti-CD3 bsIgG
T2 construct: anti-HER2 IgG with one Fab arm replaced by the anti-CD3 scFv (printed 'Vx-VH', read as VL-VH); S354C and Y349C mutations; also called anti-CD3 bsIgG (ADI-26906 scFv); not shown: scFv linker; anti-HER2 Fab arm (heavy and light chain); hinge and Fc with S354C/Y349C
T2 sequence (VH, as listed by the source limits assumed, chain 1 of 2): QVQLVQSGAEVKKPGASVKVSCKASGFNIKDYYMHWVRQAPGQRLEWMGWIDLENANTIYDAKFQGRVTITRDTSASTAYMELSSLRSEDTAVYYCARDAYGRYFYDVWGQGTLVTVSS
T2 sequence (VL, as listed by the source limits assumed, chain 2 of 2): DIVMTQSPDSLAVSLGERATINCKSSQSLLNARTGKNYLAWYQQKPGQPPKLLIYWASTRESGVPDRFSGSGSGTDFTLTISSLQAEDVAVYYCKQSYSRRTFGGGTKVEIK
Method: as §1, §2

ADI-26913 anti-CD3 bsIgG = molecular target: T3, ADI-26913 anti-CD3 bsIgG
T3 construct: anti-HER2 IgG with one Fab arm replaced by the anti-CD3 scFv (printed 'Vx-VH', read as VL-VH); S354C and Y349C mutations; also called anti-CD3 bsIgG (ADI-26913 scFv); not shown: scFv linker; anti-HER2 Fab arm (heavy and light chain); hinge and Fc with S354C/Y349C
T3 sequence (VH, as listed by the source limits assumed, chain 1 of 2): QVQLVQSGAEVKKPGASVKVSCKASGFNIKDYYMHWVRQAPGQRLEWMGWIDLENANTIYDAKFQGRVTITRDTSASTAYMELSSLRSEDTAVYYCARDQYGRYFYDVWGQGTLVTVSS
Method: as §1, §2

ADI-26916 anti-CD3 bsIgG = molecular target: T4, ADI-26916 anti-CD3 bsIgG
T4 construct: anti-HER2 IgG with one Fab arm replaced by the anti-CD3 scFv (printed 'Vx-VH', read as VL-VH); S354C and Y349C mutations; also called anti-CD3 bsIgG (ADI-26916 scFv); not shown: scFv linker; anti-HER2 Fab arm (heavy and light chain); hinge and Fc with S354C/Y349C; copies: 1 + 1
T4 sequence (VH, as listed by the source limits assumed, chain 1 of 2): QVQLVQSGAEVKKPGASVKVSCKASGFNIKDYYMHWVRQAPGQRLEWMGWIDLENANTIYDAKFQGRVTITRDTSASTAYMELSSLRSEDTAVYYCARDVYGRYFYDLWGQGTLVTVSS
Method: as §1, §2

ADI-26920 anti-CD3 bsIgG = molecular target: T5, ADI-26920 anti-CD3 bsIgG
T5 construct: anti-HER2 IgG with one Fab arm replaced by the anti-CD3 scFv (printed 'Vx-VH', read as VL-VH); S354C and Y349C mutations; also called anti-CD3 bsIgG (ADI-26920 scFv); not shown: scFv linker; anti-HER2 Fab arm (heavy and light chain); hinge and Fc with S354C/Y349C
T5 sequence (VH, as listed by the source limits assumed, chain 1 of 2): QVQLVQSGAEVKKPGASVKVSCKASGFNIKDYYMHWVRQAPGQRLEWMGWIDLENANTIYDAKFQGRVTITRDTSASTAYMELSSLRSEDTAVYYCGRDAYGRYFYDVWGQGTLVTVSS
T5 sequence (VL, as listed by the source limits assumed, chain 2 of 2): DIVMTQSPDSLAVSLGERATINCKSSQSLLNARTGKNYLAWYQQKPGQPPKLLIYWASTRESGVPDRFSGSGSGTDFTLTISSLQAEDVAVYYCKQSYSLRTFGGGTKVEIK
Method: as §1, §2

ADI-26954 anti-CD3 bsIgG = molecular target: T6, ADI-26954 anti-CD3 bsIgG
T6 construct: anti-HER2 IgG with one Fab arm replaced by the anti-CD3 scFv (printed 'Vx-VH', read as VL-VH); S354C and Y349C mutations; also called anti-CD3 bsIgG (ADI-26954 scFv); not shown: scFv linker; anti-HER2 Fab arm (heavy and light chain); hinge and Fc with S354C/Y349C
T6 sequence (VH, as listed by the source limits assumed, chain 1 of 2): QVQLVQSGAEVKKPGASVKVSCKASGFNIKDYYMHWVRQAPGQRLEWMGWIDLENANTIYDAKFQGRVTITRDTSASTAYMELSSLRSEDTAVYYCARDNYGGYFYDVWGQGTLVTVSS
T6 sequence (VL, as listed by the source limits assumed, chain 2 of 2): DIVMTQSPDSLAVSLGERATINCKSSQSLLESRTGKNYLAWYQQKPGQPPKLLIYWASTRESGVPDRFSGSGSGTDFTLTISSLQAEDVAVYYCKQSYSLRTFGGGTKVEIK
Method: as §1, §2

CTL-19672 anti-CD3 bsIgG = molecular target: T7, CTL-19672 anti-CD3 bsIgG (In the assay the two domains were one scFv (VL-VH orientation, linker not given). It replaced one Fab arm of an anti-HER2 IgG; S354C and Y349C mutations are stated for disulfide stabilization.)
T7 construct: anti-HER2 IgG with one Fab arm replaced by the anti-CD3 scFv (printed 'Vx-VH', read as VL-VH); S354C and Y349C mutations; not shown: scFv linker between VL and VH; anti-HER2 heavy and light chains of the other arm; hinge and Fc (with S354C / Y349C)
T7 sequence (VH, as listed by the source limits assumed, chain 1 of 2): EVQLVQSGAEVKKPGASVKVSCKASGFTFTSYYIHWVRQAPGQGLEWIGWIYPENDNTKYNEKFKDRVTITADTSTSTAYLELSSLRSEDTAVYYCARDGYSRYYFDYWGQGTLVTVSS
T7 sequence (VL, as listed by the source limits assumed, chain 2 of 2): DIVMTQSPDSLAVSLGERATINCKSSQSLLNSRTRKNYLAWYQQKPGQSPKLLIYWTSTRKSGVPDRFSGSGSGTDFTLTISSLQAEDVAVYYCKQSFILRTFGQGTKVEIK
Method: as §1, §2

CTL-19613 anti-CD3 bsIgG = molecular target: T8, CTL-19613 anti-CD3 bsIgG (In the assay the two domains were one scFv (VL-VH orientation, linker not given). It replaced one Fab arm of an anti-HER2 IgG; S354C and Y349C mutations are stated for disulfide stabilization.)
T8 construct: anti-HER2 IgG with one Fab arm replaced by the anti-CD3 scFv (printed 'Vx-VH', read as VL-VH); S354C and Y349C mutations; also called anti-CD3 bsIgG (CTL-19613 scFv); not shown: scFv linker between VL and VH; anti-HER2 heavy and light chains of the other arm; hinge and Fc (with S354C / Y349C)
Method: as §1, §2

B1: ADI-34145 IgG (antibody, V domains shown)
VH: EVQLLESGGGLVQPGGSLRLSCAASGFTFSSYAMSWVRQAPGKGLEWVSTISGSGGSTYYADSVKGRFTISRDNSKNTLYLQMNSLRAEDTAVYYCARLGGRRGSGSSYYYYYGMDVWGQGTTVTVSS
VL: not shown
notes: anti-ID IgG
- Kd (ADI-22523 anti-CD3 bsIgG): 9.13 nM
- Kd (ADI-26906 anti-CD3 bsIgG): 13.4 nM
- Kd (ADI-26913 anti-CD3 bsIgG): 14.7 nM
- Kd (ADI-26916 anti-CD3 bsIgG): 57.1 nM
- Kd (ADI-26920 anti-CD3 bsIgG): 6.72 nM
- Kd (ADI-26954 anti-CD3 bsIgG): 27.8 nM
- binding result (CTL-19672 anti-CD3 bsIgG): no binding
- binding result (CTL-19613 anti-CD3 bsIgG): no binding
